Experiment [1] deals with T1, TRCW5 antigen (CD3δε-Fc-Avi) (biotinylated (site not stated)).
T1 construct: also called recombinant CD3
The experiment can be described thus: binding after heat.

The target of experiment [2] is T2, CD3 on primary human pan T cells (human, UniProt P07766 23-207).
T2 construct: on cells it stands in the TCR/CD3 complex; also called Pan T-cells (CD3-positive); endogenous CD3
As to the kind of experiment: flow cytometry, pan T-cells. The method, then:
ELISA assays for binding to recombinant CD3 (TRCW5, SEQ ID NO: 39) were performed as above. Cell binding was performed using primary human T cell and Jurkat cells by flow cytometry. Briefly, E. coli expressed anti CD3 ScFv supernatants, either at room temperature, or 55° C., 60° C. or 65° C. heat treated samples.
Pan T-cells (CD3-positive) and Jurkat-CD3-negative cells were prepared by staining Jurkat-CD3-negative cells with CFSE while keeping pan T-cells unstained. Jurkat-CD3-negative cell suspensions were resuspended at 20 million cells per each 50 mL conical tube. Cells were harvested by centrifugation at 400×g for 5 minutes and resuspended in DPBS followed by washing 2× in DPBS. Cells were stained with 1:25,000 dilution for a final dye concentration of 0.02 uM CFSE (2 uL of staining solution to 50 mL of cell suspension). Cells were incubated for 10 minutes at room temperature and centrifuged for 5 minutes at 400×g. After removal of supernatant, 3 mL of HI-FBS were added to the cell pellet, mixed and centrifuged for 5 min at 400×g. Supernatant was removed and cells were resuspended in BD stain buffer at 2×10\hat{ }6 cells/mL and incubated on ice or 4 C protected from light. Human pan T cells were thawed at 37 C and transferred gently into a conical tube containing 15 mL of warm or RT culture media (RPMI+10% FBS). […] Cells were harvested by centrifugation at 400×g for 5 min and resuspended in culture media (RPMI+10% HI-FBS). Pan T-cells (without staining) were prepared at 2×10\hat{ }6 cells/mL in flow staining buffer. Equal volumes of CFSE stained Jurkat-CD3-negative cells and unstained T-cells (CD3-positive) cells were mixed and plated 50 uL/well into assay plates. 50 uL/well neat bacterial supernatant samples and control sample (CD3W36 ScFv) were added to each well and plates were incubated 1 hr at 4 C or. Cells were harvested by centrifugation at 400×g for 4 min and 150 uL staining buffer were added to all wells, followed by centrifugation at 400×g for 4 min to pellet cells. To each well, 150 uL staining buffer were added followed by centrifugation at 400×g for 4 minutes to pellet cells.
Background: Flow cytometry measures light scatter and fluorescence of single cells or particles in a stream.

The target of experiment [3] is T1, TRCW5 antigen (CD3δε-Fc-Avi). As to the kind of experiment: ELISA after heat. Background: In an ELISA, binding on a coated surface is turned into a signal by an enzyme label.
Experiment [4] shares this target. The experiment can be described thus: ELISA.
The target in experiment [5] is T3, Human CD3 epsilon (CD3ε), on primary human pan T cells (human, UniProt P07766 23-207).
T3 construct: Endogenous CD3 in the TCR complex on T cells; also called T-cell surface glycoprotein CD3 epsilon chain; T3E
T3 sequence (P07766 23-207 limits assumed): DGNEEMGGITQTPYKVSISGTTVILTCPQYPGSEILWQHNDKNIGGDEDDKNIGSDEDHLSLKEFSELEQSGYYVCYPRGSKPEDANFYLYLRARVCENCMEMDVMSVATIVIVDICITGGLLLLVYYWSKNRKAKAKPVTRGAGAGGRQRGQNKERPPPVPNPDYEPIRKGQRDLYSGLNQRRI
As to the kind of experiment: flow cytometry on human T cells, anti-human IgG Fc A647 detection. The method, then: The bsAbs were assayed for their abilities bind T cells and to induce T-cell mediated cytotoxicity against H929 cells (ATCC@CRL-9068™). […] Stain buffer with no antibody was added to bottom 4 wells and assign as background control (secondary antibody alone). Parental Cris7b, CD3B695 (bivalent mAb controls) and CD3B375 (bsAb which was monovalent for Cris-7b) were added also with full dose-response curves.
Frozen T-cells were thawed in a 37° C. water bath and transferred gently into conical tube containing warm 5 mL media (RPMI+10% FBS)/1 vial of 1×10⁶ cells. Cells were mixed and centrifuged for 5 minutes at 400×g followed by resuspension in flow staining buffer, and counted and viability checked. Cells were then plated in 50 uL/50,000 cells/well into assay plates. Assay positive control mAb was added in the first column in quadruplicates at 2× at 20 nM in the bottom 4 wells. Stain buffer with no mAb was added to the top 4 wells and assigned as background controls (secondary antibody alone). Serially diluted antibody samples were added at 50 uL/well using Intergra Viaflo according to the attached plate maps and incubated for 1 hr at 37° C. After one hour incubation, 150 uL staining buffer were added to all wells, and cells were spun at 500×g for 5 minutes to pellet cells. Cells were then washed prior to addition of Alexa Fluor 647 (A647) conjugated anti human IgG Fc specific secondary detection antibody at 2 ug/mL in staining buffer. Secondary detection antibody was added at 50 uL/well to the washed cells. Plates were covered with foil and incubated for 30 minutes on ice or in the fridge. 150 uL staining buffer were added to all wells, and cells were spun at 500×g for 5 min to pellet cells. Cells were resuspended in 20 uL running buffer containing 1:1000 dilution of SYTOX™ green dead cell stain and run plates on iQue® Screener flow cytometer (Essen BioScience, Inc.). Briefly, cells were gated on FCS vs. SCS dot plot to eliminate debris. Singlets were gated on SCS-A vs SCS-H dot plot and from singlet population, live cells gated choosing BL1 channel for low/negative with SYTOX™ green viability stain (Thermo Fisher).

Where a chain is given by its changes, count along the chain named. Names and notes keep the numbering of the source.

T2 sequence (P07766 23-207 limits assumed): as above
T1 sequence (chain, as listed by the source mutant limits assumed): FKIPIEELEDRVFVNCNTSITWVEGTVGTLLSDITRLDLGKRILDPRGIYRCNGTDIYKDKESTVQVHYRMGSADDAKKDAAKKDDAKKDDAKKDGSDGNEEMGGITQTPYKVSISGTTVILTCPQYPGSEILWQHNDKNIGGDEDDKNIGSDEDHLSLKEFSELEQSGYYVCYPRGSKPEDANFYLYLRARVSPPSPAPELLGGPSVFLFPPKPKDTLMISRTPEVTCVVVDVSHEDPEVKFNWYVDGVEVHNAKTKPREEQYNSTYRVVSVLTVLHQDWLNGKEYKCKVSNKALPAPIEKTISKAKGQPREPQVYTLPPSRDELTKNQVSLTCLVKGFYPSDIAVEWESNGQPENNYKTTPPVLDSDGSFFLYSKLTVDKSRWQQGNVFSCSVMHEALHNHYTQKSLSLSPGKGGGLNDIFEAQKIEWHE

B1: CD3B2030 (scFv)
scFv: QVQLVQSGAEVKKPGSSVKVSCKASGYTFTRSTMHWVKQAPGQGLEWIGYINPSSAYTNYNQKFQGRVTLTADKSTSTAYMELSSLRSEDTAVYYCASPQVHYDYNGFPYWGQGTLVTVSSGGSEGKSSGSGSESKSTGGSEIVLTQSPATLSASPGERVTLSCSASSSVSYMNWYQQKPGQAPRRWIYDSSKLASGVPARFSGSGSGRDYTLTISSLEPEDFAVYYCQQWSRNPPTFGGGTKVEIK
The EC50 is the concentration giving half of the maximal effect. The low end stands for greater potency, the high end for weaker potency. Take B1: in experiment [1], the “% Retained 55° C.” value amounted to 104%, the “% Retained 60° C.” value came out at 102% and the “% Retained 65° C.” value was found to be 41.3%. In addition, in experiment [2], the “% Binding retained on T-cells, 55° C.” value was determined as 1.05 fraction; the “% Binding retained on T-cells, 60° C.” value worked out at 1.1 fraction; the “% Binding retained on T-cells, 65° C.” value was found to be 0.757 fraction; the “% Binding retained on T-cells, RT” value is 1 fraction. Besides, in experiment [3], the “% Retained 55° C.” value was found to be 106%, the “% Retained 60° C.” value was 101% and the “% Retained 65° C.” value worked out at 36%. A half-maximal effect in experiment [4] (EC50) was put at 8.84 nM.

B2: CD3B2089 (scFv)
scFv: B1 scFv with K38R, I48M, N61A
For B2, in experiment [1], the “% Retained 55° C.” value amounted to 104%, the “% Retained 60° C.” value came to 109% and the “% Retained 65° C.” value is 15.1%. Also, in experiment [2], the “% Binding retained on T-cells, 55° C.” value was found to be 1.08 fraction; the “% Binding retained on T-cells, 60° C.” value is 0.494 fraction; the “% Binding retained on T-cells, 65° C.” value was found to be 0.111 fraction; the “% Binding retained on T-cells, RT” value is 1 fraction. Also, in experiment [3], the “% Retained 55° C.” value amounted to 111%, the “% Retained 60° C.” value is 108% and the “% Retained 65° C.” value turned out to be 41%. The molecule further displayed an EC50 in experiment [4] of 8.79 nM.

B3: BC3B102 (bispecific antibody, human IgG1, kappa, L234A L235A)
chain: QVQLVQSGAEVKKPGSSVKVSCKASGYTFTRSTMHWVKQAPGQGLEWIGYINPSSAYTNYNQKFQGRVTLTADKSTSTAYMELSSLRSEDTAVYYCASPQVHYDYNGFPYWGQGTLVTVSSGGSEGKSSGSGSESKSTGGSEIVLTQSPATLSASPGERVTLSCSASSSVSYMNWYQQKPGQAPRRWIYDSSKLASGVPARFSGSGSGRDYTLTISSLEPEDFAVYYCQQWSRNPPTFGGGTKVEIKEPKSSDKTHTCPPCPAPEAAGGPSVFLFPPKPKDTLMISRTPEVTCVVVSVSHEDPEVKFNWYVDGVEVHNAKTKPREEQYNSTYRVVSVLTVLHQDWLNGKEYKCKVSNKALPAPIEKTISKAKGQPREPQVYVYPPSREEMTKNQVSLTCLVKGFYPSDIAVEWESNGQPENNYKTTPPVLDSDGSFALVSKLTVDKSRWQQGNVFSCSVMHEALHNHYTQKSLSLSPG
heavy: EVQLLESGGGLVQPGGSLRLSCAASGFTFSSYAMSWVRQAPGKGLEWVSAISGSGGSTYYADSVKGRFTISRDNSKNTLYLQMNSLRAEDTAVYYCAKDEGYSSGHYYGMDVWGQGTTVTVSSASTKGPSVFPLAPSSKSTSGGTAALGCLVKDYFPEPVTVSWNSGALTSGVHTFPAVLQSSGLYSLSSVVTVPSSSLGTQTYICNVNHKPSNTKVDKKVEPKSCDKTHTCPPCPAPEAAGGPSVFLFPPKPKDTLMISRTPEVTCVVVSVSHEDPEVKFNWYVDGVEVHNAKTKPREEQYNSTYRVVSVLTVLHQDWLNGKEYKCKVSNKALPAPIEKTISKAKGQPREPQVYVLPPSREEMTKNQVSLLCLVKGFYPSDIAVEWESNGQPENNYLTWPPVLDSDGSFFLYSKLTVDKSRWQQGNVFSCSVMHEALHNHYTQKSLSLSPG
light: EIVLTQSPGTLSLSPGERATLSCRASQSISSSFLTWYQQKPGQAPRLLIYGASSRATGIPDRFSGGGSGTDFTLTISRLEPEDFAVYYCQHYGSSPMYTFGQGTKLEIKRTVAAPSVFIFPPSDEQLKSGTASVVCLLNNFYPREAKVQWKVDNALQSGNSQESVTEQDSKDSTYSLSSTLTLSKADYEKHKVYACEVTHQGLSSPVTKSFNRGEC
notes: IgG1 BCMAxCD3; HC1: CD3B2030 HL scFv-Fc; also called BC3B102.001; B2030 HL
For B3, in experiment [5], it took 3 nM to reach a half-maximal effect (EC50).

B4: BC3B116 (bispecific antibody, human IgG1, kappa, L234A L235A)
chain: EIVLTQSPATLSASPGERVTLSCSASSSVSYMNWYQQKPGQAPRRWIYDSSKLASGVPARFSGSGSGRDYTLTISSLEPEDFAVYYCQQWSRNPPTFGGGTKVEIKGGSEGKSSGSGSESKSTGGSQVQLVQSGAEVKKPGSSVKVSCKASGYTFTRSTMHWVKQAPGQGLEWIGYINPSSAYTNYNQKFQGRVTLTADKSTSTAYMELSSLRSEDTAVYYCASPQVHYDYNGFPYWGQGTLVTVSSEPKSSDKTHTCPPCPAPEAAGGPSVFLFPPKPKDTLMISRTPEVTCVVVSVSHEDPEVKFNWYVDGVEVHNAKTKPREEQYNSTYRVVSVLTVLHQDWLNGKEYKCKVSNKALPAPIEKTISKAKGQPREPQVYVYPPSREEMTKNQVSLTCLVKGFYPSDIAVEWESNGQPENNYKTTPPVLDSDGSFALVSKLTVDKSRWQQGNVFSCSVMHEALHNHYTQKSLSLSPG
heavy: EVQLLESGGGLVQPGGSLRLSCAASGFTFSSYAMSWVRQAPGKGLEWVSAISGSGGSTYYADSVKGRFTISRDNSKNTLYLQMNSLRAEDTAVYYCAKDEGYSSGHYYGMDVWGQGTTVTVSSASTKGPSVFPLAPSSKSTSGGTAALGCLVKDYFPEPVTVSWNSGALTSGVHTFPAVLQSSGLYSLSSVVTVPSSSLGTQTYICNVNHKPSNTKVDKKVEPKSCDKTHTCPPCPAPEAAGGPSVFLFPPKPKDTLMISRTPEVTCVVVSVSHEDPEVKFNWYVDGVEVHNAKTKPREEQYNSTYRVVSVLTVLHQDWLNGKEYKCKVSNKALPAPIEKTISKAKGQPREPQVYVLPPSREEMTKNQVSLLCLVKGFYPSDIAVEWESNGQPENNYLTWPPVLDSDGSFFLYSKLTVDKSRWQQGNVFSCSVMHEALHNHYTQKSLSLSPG
light: B3 light
notes: IgG1 BCMAxCD3; HC1: CD3B2030 LH scFv-Fc; also called BC3B116.001; B2030 LH
As to B4, in experiment [5], a half-maximal effect (EC50) was put at 21.8 nM.

B5: BC3B125 (bispecific antibody, human IgG1, kappa, L234A L235A)
chain: B4 chain with K164R, I174M, N187A
heavy: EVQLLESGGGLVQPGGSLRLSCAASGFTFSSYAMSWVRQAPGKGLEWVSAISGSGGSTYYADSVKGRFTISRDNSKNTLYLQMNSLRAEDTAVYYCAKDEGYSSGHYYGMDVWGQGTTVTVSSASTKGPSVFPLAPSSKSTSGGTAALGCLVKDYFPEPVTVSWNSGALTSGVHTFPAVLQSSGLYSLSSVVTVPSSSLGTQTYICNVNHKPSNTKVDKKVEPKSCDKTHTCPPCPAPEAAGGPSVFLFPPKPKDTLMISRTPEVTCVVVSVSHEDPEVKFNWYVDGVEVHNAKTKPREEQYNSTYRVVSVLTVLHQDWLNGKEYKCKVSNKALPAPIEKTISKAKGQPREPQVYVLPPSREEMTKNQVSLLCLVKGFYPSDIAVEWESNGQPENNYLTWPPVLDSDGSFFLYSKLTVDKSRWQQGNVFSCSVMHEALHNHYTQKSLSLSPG
light: B3 light
notes: IgG1 BCMAxCD3; HC1: CD3B2089 LH scFv-Fc; also called BC3B125.001; B2089 LH
Regarding B5, the EC50 in experiment [5] came out at 36.9 nM.

B6: BC3B120 (bispecific antibody, human IgG1, kappa, L234A L235A)
chain: B4 chain with W46L, I174M
heavy: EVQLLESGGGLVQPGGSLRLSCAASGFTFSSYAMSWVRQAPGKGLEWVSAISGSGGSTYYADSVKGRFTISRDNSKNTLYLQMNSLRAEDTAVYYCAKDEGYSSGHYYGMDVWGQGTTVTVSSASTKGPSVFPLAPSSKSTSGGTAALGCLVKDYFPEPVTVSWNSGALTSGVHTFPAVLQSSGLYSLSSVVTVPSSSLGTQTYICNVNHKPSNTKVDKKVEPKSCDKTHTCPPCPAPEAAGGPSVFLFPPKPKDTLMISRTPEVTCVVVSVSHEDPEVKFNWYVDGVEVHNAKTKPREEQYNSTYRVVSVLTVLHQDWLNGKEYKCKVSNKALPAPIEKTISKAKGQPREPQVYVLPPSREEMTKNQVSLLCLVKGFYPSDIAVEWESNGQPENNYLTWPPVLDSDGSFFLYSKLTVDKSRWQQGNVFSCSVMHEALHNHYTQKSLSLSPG
light: B3 light
notes: IgG1 BCMAxCD3; HC1: CD3B2051 LH scFv-Fc; also called BC3B120.001; B2051 LH
B6: the midpoint of the response in experiment [5], the EC50, lay at 100 nM.

B7: BC3B106 (bispecific antibody, human IgG1, kappa, L234A L235A)
chain: B3 chain with I48M, W187L
heavy: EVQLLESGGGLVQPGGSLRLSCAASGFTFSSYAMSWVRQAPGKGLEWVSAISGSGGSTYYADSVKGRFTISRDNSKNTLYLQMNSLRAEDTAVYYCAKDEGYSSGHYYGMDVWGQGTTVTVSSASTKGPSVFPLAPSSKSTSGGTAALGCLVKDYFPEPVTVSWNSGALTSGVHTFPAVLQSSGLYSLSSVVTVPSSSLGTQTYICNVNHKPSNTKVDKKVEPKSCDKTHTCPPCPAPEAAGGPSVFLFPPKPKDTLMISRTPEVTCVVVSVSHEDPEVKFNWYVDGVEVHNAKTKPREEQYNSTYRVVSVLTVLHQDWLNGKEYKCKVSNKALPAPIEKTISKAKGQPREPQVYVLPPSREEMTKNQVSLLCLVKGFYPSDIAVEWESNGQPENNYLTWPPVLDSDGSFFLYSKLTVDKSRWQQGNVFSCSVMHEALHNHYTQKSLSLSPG
light: B3 light
notes: IgG1 BCMAxCD3; HC1: CD3B2051 HL scFv-Fc; also called BC3B106.001; B2051 HL
B7 yielded an EC50 in experiment [5] of 6.8 nM.

B8: BC3B124 (bispecific antibody, human IgG1, kappa, L234A L235A)
chain: B4 chain with W46L, I174M, N232S
heavy: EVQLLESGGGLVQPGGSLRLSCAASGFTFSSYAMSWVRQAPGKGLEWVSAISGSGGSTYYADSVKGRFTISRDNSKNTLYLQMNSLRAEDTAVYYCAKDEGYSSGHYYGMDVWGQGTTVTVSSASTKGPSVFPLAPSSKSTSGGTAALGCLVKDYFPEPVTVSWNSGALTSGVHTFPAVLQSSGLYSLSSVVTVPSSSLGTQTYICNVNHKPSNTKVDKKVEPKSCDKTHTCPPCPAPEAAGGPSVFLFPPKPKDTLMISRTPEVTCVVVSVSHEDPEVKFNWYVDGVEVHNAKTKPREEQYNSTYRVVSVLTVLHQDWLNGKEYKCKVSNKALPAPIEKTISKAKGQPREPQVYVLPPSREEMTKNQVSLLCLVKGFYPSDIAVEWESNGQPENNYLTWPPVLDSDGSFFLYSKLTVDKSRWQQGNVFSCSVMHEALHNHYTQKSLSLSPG
light: B3 light
notes: IgG1 BCMAxCD3; HC1: CD3B2051-N106S LH scFv-Fc; also called BC3B124.001; B2051 LH NtoS
With B8, the EC50 in experiment [5] was determined as 300 nM.

B9: BC3B111 (bispecific antibody, human IgG1, kappa, L234A L235A)
chain: B3 chain with K38R, I48M, N61A
heavy: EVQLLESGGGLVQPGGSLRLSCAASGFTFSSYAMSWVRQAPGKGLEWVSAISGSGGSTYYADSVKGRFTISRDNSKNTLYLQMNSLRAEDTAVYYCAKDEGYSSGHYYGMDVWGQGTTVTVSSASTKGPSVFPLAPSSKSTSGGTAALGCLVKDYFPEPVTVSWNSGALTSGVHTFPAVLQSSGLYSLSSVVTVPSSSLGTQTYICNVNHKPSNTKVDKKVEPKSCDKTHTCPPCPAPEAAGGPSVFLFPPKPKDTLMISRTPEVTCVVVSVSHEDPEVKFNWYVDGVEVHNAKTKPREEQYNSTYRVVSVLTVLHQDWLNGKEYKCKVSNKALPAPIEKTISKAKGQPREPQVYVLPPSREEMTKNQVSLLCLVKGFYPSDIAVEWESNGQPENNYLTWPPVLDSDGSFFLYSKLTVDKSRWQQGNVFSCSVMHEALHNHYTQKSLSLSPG
light: B3 light
notes: IgG1 BCMAxCD3; HC1: CD3B2089 HL scFv-Fc; also called BC3B111.001; B2089 HL
B9 yielded an EC50 in experiment [5] of 6.4 nM.

B10: BC3B112 (bispecific antibody, human IgG1, kappa, L234A L235A)
chain: B3 chain with K38R, I48M, N61A, N106A
heavy: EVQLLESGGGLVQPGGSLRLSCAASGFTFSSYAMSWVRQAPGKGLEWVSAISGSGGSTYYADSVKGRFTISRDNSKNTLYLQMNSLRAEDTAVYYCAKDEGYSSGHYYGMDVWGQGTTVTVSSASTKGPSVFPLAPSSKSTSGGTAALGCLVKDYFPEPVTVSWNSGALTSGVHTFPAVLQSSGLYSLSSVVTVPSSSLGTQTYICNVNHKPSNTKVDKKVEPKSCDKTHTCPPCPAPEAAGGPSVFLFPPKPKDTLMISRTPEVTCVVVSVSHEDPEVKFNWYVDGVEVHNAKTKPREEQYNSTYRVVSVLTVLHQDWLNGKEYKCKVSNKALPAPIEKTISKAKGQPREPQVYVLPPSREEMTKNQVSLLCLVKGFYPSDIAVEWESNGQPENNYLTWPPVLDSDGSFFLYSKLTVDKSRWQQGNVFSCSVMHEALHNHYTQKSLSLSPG
light: B3 light
notes: IgG1 BCMAxCD3; HC1: CD3B2089-N106A HL scFv-Fc; also called BC3B112.001; B2089 HL NtoA
B10: the EC50 in experiment [5] is at least 300 nM.

(Values after patent US20250145711A1 (Janssen / Centocor, published 2025).)
